In article PMC4175578:

Target: N-terminal domain (residues 1-79) of HCV glycoprotein E1 ectodomain, N43Q (Hepatitis C virus, strain H77)
Experiment: SEC-MALS; analytical Superdex S200 10/30 with online static light scattering; protein not deglycosylated, ~4.2 mg/ml

Substance: N-terminal domain (residues 1-79) of HCV glycoprotein E1 ectodomain, N43Q (domain or fragment)
- stoichiometry N: 2
